In patent US20220106400A1 (published 2022) one finds EC50 data, which are given here for two molecules.

For this test, the target named is T1, human GITR on cells (human, UniProt Q9Y5U5 26-241).
T1 chain: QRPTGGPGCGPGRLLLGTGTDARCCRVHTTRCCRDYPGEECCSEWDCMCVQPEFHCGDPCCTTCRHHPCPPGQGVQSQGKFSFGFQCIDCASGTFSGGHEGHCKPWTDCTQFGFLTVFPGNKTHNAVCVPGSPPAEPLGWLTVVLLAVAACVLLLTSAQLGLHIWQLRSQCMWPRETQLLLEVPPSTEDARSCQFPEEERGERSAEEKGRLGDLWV
The test can be described thus: FACS binding to anti-CD3/CD28-activated human CD4 T cells. A general note: In flow cytometry, cells or beads pass a laser one at a time.

B1: anti-GITR-IgG2 (antibody)
heavy: QVQLVESGGGVVQPGRSLRLSCAASGFTFSSYGMHWVRQAPGKGLEWVAVIWYEGSNKYYADSVKGRFTISRDNSKNTLYLQMNSLRAEDTAVYYCARGGSMVRGDYYYGMDVWGQGTTVTVSSASTKGPSVFPLAPCSRSTSESTAALGCLVKDYFPEPVTVSWNSGALTSGVHTFPAVLQSSGLYSLSSVVTVPSSNFGTQTYTCNVDHKPSNTKVDKTVERKCCVECPPCPAPPVAGPSVFLFPPKPKDTLMISRTPEVTCVVVDVSHEDPEVQFNWYVDGVEVHNAKTKPREEQFNSTFRVVSVLTVVHQDWLNGKEYKCKVSNKGLPAPIEKTISKTKGQPREPQVYTLPPSREEMTKNQVSLTCLVKGFYPSDIAVEWESNGQPENNYKTTPPMLDSDGSFFLYSKLTVDKSRWQQGNVFSCSVMHEALHNHYTQKSLSLSPGK
light: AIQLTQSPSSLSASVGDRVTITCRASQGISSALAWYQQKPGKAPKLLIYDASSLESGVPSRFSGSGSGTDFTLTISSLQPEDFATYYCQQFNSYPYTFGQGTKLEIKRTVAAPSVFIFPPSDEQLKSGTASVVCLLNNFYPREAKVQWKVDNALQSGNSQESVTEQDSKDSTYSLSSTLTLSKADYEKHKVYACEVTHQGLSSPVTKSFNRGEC
Take B1: a half-maximal response (EC50) required 0.277 nM.

B2: anti-GITR-IgG2-IgG1.1 (antibody)
heavy: QVQLVESGGGVVQPGRSLRLSCAASGFTFSSYGMHWVRQAPGKGLEWVAVIWYEGSNKYYADSVKGRFTISRDNSKNTLYLQMNSLRAEDTAVYYCARGGSMVRGDYYYGMDVWGQGTTVTVSSASTKGPSVFPLAPCSRSTSESTAALGCLVKDYFPEPVTVSWNSGALTSGVHTFPAVLQSSGLYSLSSVVTVPSSNFGTQTYTCNVDHKPSNTKVDKTVERKCCVECPPCPAPPVAGPSVFLFPPKPKDTLMISRTPEVTCVVVDVSHEDPEVKFNWYVDGVEVHNAKTKPREEQYNSTYRVVSVLTVLHQDWLNGKEYKCKVSNKALPSSIEKTISKAKGQPREPQVYTLPPSREEMTKNQVSLTCLVKGFYPSDIAVEWESNGQPENNYKTTPPVLDSDGSFFLYSKLTVDKSRWQQGNVFSCSVMHEALHNHYTQKSLSLSPG
light: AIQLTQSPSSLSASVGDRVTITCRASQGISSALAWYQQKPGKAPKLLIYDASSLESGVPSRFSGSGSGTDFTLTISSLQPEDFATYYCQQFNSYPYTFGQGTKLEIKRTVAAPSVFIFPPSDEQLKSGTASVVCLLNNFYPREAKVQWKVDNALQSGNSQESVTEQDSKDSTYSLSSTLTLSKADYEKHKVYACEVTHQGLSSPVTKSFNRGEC
Consider B2, for which the concentration giving a half-maximal response (EC50) (usually the concentration giving half of the maximal effect) is 0.163 nM.
